T1: human Trop-2-His protein (human, UniProt P09758 27-274)
T1 construct: extracellular domain; Assay paragraphs say only 'Trop-2-His'; also called hTrop-2; Kactus Cat #TRP-HM121; not shown: His tag
T1 sequence (looked up): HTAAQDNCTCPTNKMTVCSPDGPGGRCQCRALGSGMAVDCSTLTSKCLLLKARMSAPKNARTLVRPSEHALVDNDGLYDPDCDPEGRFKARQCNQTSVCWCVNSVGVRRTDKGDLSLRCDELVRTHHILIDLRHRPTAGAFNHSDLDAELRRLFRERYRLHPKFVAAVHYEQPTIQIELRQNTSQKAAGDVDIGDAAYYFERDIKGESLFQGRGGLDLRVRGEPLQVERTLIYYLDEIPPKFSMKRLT

T2: cynomolgus Trop-2-His protein (cynomolgus, UniProt P09758 27-274 (human entry))
T2 construct: also called cynmolgus Trop-His; Kactus Cat #TRP-CM121; not shown: His tag
T2 chain: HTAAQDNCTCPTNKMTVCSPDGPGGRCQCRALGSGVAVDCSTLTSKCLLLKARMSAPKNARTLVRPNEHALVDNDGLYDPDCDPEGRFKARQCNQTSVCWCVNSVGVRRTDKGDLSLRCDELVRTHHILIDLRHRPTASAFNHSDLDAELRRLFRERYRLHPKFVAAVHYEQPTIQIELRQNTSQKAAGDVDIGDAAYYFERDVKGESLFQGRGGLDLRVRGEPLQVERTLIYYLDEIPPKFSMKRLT

T3: human Trop-2 expressed on cell surface (human, UniProt P09758 27-323)
T3 sequence (looked up): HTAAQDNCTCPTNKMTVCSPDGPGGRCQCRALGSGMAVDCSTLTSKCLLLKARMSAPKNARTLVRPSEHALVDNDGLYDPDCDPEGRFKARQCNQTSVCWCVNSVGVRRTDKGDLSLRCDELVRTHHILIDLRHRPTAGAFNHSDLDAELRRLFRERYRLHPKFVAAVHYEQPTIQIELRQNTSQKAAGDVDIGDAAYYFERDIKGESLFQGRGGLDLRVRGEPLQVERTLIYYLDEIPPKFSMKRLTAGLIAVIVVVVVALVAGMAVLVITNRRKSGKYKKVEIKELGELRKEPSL

T4: human Trop-1 (EpCAM) (human, UniProt P16422 24-265, limits assumed)
T4 sequence (looked up): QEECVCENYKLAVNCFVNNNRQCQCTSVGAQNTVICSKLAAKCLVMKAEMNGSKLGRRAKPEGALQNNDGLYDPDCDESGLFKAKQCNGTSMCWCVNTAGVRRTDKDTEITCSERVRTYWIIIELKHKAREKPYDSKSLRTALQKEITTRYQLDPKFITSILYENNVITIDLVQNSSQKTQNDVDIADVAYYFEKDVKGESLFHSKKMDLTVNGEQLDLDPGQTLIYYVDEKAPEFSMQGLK


Columns and labels:
human Trop-2-His protein = target: T1, human Trop-2-His protein; test: ELISA, coated Trop-2 protein
Method: (§1) Purified antibodies were tested by ELISA to confirm their binding and affinity against human and cynomolgus Trop-2-His protein. Briefly, 96-well Maxisorp plates (Nunc) were coated with 100 μl/well of 0.5 μg/ml human (Kactus Cat #TRP-HM121, or Sino Biological, Cat #10428-HO8H) or cynomolgus Trop-2 protein (Kactus Cat #TRP-CM121, or Sino Biological, Cat #90893-CO8H) diluted in 1×PBS (GIBCO) overnight at 4° C. Plates were washed four times with 300 μl/well washing buffer (1×PBST, diluted from 20×PBST (Thermo Scientific) with distilled water)) and then blocked with 300 μl/well of blocking buffer (1×PBST/3% BSA (BSA, Sigma)) for 2 hours at RT on plate shaker at 100 rpm. Plates were washed and added with 100 μl/well of testing antibodies, which were serial diluted with assay buffer (PBST/1% BSA). The antibodies were incubated at room temperature for 2 hours on plate shaker at 100 rpm. Plates were washed. One hundred microliters (100 μl) of 1:10,000 diluted horseradish peroxidase (HRP) conjugated anti-hIgG antibody (Jackson Immuno Research) was added into each well and incubated at room temperature for 1 hour on plate shaker at 100 rpm. Plates were washed and added with 100 μl/well TMB substrate for color development in dark at room temperature for up to 10 minutes. After addition of 50 μl/well of stop solution (1N H₂SO₄), plates were read at 450 nm on a plate reader (SpectraMax M5). EC₅₀ values were calculated using Graphpad Prism. Sacituzumab govitecan, was used as positive control. Anti-HEL.hIgG1 was used as isotype control.

[1] = target: T2, cynomolgus Trop-2-His protein; test: ELISA, coated Trop-2 protein
Method: as §1

[2] = target: T3, human Trop-2 expressed on cell surface; test: cell-based or functional assay
human Trop-1 (EpCAM) = target: T4, human Trop-1 (EpCAM); test: ELISA, similar to Table 24
[3] = target: T3, human Trop-2 expressed on cell surface; test: cell-based or functional assay; remark: listed apart in the source
[4] = target: T3, human Trop-2 expressed on cell surface; test: flow cytometry, MCF-7 cells
Method: Cells were then resuspended in FACS buffer (1×DPBS/1% FBS) at 10⁶/ml concentration. One hundred microliter (100 μl) of cells were aliquoted into a single well in 96 well plates. The antibodies to be tested were serially diluted at 1:3 fold starting at 15 μg/mL and were then added into each well. The antibodies were mixed with cells and the mixtures were incubated on ice for 1 hour. After washing with FACS buffer, one hundred microliter (100 μl) of 1:400 diluted PE-conjugated anti-human Fc secondary antibody (Jackson Immuno Research) was added into each well and incubated for 30 minutes on ice. After washing with FACS buffer, stained cells were resuspended at diluted 7-ADD (Biolegend, used at 1:100 dilution) and analyzed on Guava 11HT or 5HT (Luminex). Data was analyzed using Flowjo software. EC₅₀ values were calculated using GraphPad Prism. Sacitnzurnab govitecan was used as positive control. Anti-HEL.hIgG1 was used as isotype negative control. Similar assay was performed using MCF-7 cells (known to express human Trop-2).

Row | EC50 (human Trop-2-His protein) [nM] | EC50 [1] [nM] | Internalization %, MDA-MB-231, 0.25 µg/ml, 2 h [2] [%] | Internalization %, MDA-MB-231, 0.25 µg/ml, 4 h [2] [%] | Internalization %, MDA-MB-231, 0.5 µg/ml, 2 h [2] [%] | Internalization %, MDA-MB-231, 0.5 µg/ml, 4 h [2] [%] | Internalization %, MDA-MB-231, 1 µg/ml, 2 h [2] [%] | Internalization %, MDA-MB-231, 1 µg/ml, 4 h [2] [%] | Internalization %, MDA-MB-231, 2 µg/ml, 2 h [2] [%] | Internalization %, MDA-MB-231, 2 µg/ml, 4 h [2] [%] | binding result (human Trop-1 (EpCAM)) | Internalization %, MCF-7, 0.25 µg/ml, 1 h [3] [%] | Internalization %, MCF-7, 0.25 µg/ml, 2 h [3] [%] | Internalization %, MCF-7, 0.25 µg/ml, 4 h [3] [%] | Internalization %, MCF-7, 0.5 µg/ml, 1 h [3] [%] | Internalization %, MCF-7, 0.5 µg/ml, 2 h [3] [%] | Internalization %, MCF-7, 0.5 µg/ml, 4 h [3] [%] | EC50 [4] [nM] | Binder
1 | 0.017 | 0.016 | 42 | 52 | 47 | 55 | 43 | 54 | 42 | 49 | no binding | 42 | 75 | 69 | 46 | 60 | 65 | 1.2 | 9D7 (antibody, V domains shown, Rabbit-derived clone; LEM construct: VH + rabbit IgG CH1 + human IgG1 CH2-CH3) VH: QSLEESGGDLVQPGASLTLTCKASGFDLNNYSILWVRQAPGKGLEWIGCIYISGGSTYYANWAKGRFAISKTSSTTVTLQMTSLTAADTATYFCARDDGTASYYLNLWGPGTLVTVSS VL: YDMTQTPASVSEPVGGTVTIKCQASEDIYKLLAWYQQKPGQPPKLLIYAASDLESGVPSRFKGRGSGTDYTLTISDLECADAATYYCQQAYTIGNIDNSFGGGTEVVVK
2 | 0.016 | 0.017 | 46 | 53 | 48 | 52 | 41 | 51 | 39 | 44 | no binding | 30 | 56 | 49 | 44 | 54 | 65 | 0.9 | 1D10 (antibody, V domains shown, Rabbit-derived clone; LEM construct: VH + rabbit IgG CH1 + human IgG1 CH2-CH3) VH: QEQLKESGGGLVQPGGSLTLSCKASGFDFNYYGVSWVRQAPGKGLEWIGYIYPAYHNTYYATWVNGRFTISSHNAQNTLYLQLNTLTAADTATYFCARDAGSTDYNLNLWGPGTLVTVSS VL: DVVMTQTPASVEVAVGGTVTIKCQASEDIESYLAWYQQKPGQPPRLLIYEASKLASGVSSRFSGGGYGTDFTLTISGVECADAATYYCHQALTIGNVDNPFGGGGEVVVK
3 | 0.013 | 0.013 | 38 | 48 | 42 | 48 | 35 | 45 | 37 | 45 | no binding | 21 | 37 | 47 | 24 | 39 | 48 | 0.7 | 72F12 (antibody, V domains shown, Rabbit-derived clone; LEM construct: VH + rabbit IgG CH1 + human IgG1 CH2-CH3) VH: QEQLKESGGGLVQPGGSLKLSCKASGFDFNNYGVSWVRQAPGKGLEWIAYIYPAFHNTYYATWVNGRFTISSHNAQNTLYLQLNSLTAADTATYFCARDAGSVDYNFNLWGPGTLVTVSS VL: DVVMTQTPASVEVAVGGTVTIKCQASKNIDSNLAWYQQKPGQPPKQLIYAASTLASGVSSRFSGSGYGAEFTLTISGVECADAATYYCQQALTIGNVDNPFGGGSEVVVK
4 | 0.018 | 0.016 | 41 | 46 | 42 | 45 | 43 | 49 | 43 | 48 | no binding | 23 | 39 | 45 | 21 | 41 | 40 | 0.7 | 62E3 (antibody, V domains shown, Rabbit-derived clone; LEM construct: VH + rabbit IgG CH1 + human IgG1 CH2-CH3) VH: QEQLKESGGGLVQPGGSLKLSCKASGFDFNEYGVSWVRQAPGKGLEWIAYIYPAFHNTYYATWVNGRFTISSHNAQNTLYLQLNTLTAADTATYFCARDAGTTDYNFNLWGPGTLVTVSS VL: DVVMTQTASPVSAAVGGTVTIKCQASEDIESYLAWYQQKPGQPPKLLIYEASKLASGVSSRFSGSGYGTEFTLTISGVECADAATYYCQQALTIGNVDNPFGGGSEVVVK
5 | 0.033 | 0.03 | 34 | 38 | 34 | 46 | 33 | 41 | 28 | 31 | no binding | 2 | 31 | 36 | 29 | 44 | 49 | 0.3 | 9F7 (antibody, V domains shown, Rabbit-derived clone; LEM construct: VH + rabbit IgG CH1 + human IgG1 CH2-CH3) VH: QEQLKESGGGLVQPGGSLTLSCKASGFDFNNYGVSWVRQAPGKGLEWIGYIYPAYHNTYYATWVNGRFTISSHNAQNTLYLQLNTLTAADTATYFCARDTGSTDYNFNLWGPGTLVTVSS VL: DVVMTQTPASVEVAVGGTVTIKCQASEDIESYLAWYQQKPGQPPKLLIYEASKLASGVSSRFSGGGYGTEFTLTISGVECADAATYYCQQALTVGNVDNPFGGGSEVVVK
